Assay results published in patent US20210032313A1 (Daiichi Sankyo, published 2021).
Positions count from the first letter of the chain named.

How the values were obtained:
[1] = target: T1, KLK12 (human, UniProt Q9UKR0); assay: fluorogenic peptide substrate cleavage, 1 µM inhibitor
T1 construct: commercial enzyme (R&D Systems, 3095-SE); 0.1 µg/mL in the assay; substrate Boc-Val-Pro-Arg-AMC 100 µM; also called Human KLK12; hKLK12
T1 sequence (protease, looked up): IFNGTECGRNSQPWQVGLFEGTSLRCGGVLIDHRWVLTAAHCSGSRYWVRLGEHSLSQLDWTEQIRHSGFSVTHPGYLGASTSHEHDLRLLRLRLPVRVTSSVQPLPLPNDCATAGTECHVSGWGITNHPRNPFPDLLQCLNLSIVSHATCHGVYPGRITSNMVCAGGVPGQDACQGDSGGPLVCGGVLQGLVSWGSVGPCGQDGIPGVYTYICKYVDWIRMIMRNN
Description: FIG. 3G includes graphs to evaluate the cross-reactivity of each inhibitory peptide with proteases, using the degradation of a peptide substrate as an index. For evaluating the Human KLK7 inhibitory activity, hKLK7 with a final concentration of 1 μg/mL and a substrate peptide Mca-Arg-Pro-Lys-Pro-Val-Glu-Nval-Trp-Arg-Lys (Dnp)-NH₂ (R&D Systems, Inc., ES002) with a final concentration of 20 μM were used. For evaluating the Human KLK8 inhibitory activity, hKLK8 (UniProt: 060259, prepared by the inventors) with a final concentration of 5 nM and a substrate peptide Boc-Val-Pro-Arg-AMC (R&D Systems, Inc., ES011) with a final concentration of 100 μM were used. For evaluating the Human KLK12 inhibitory activity, hKLK12 (R&D Systems, Inc., 3095-SE) with a final concentration of 0.1 μg/mL and a substrate peptide Boc-Val-Pro-Arg-AMC (R&D Systems, Inc., ES011) with a final concentration of 100 μM were used.
The specificities for other proteases were evaluated using the degradation of a substrate peptide as an index. As in the method described in (3-1), 25 μL each of a protease and a sample diluted with an assay buffer were mixed (to a final concentration of sample of 1 μM), followed by a reaction at 37° C. for 20 minutes. Thereafter, 50 μL of a substrate diluted with an assay buffer was added thereto, and the fluorescence signal was measured using Enspire (PerkinElmer). An assay buffer (50 mM Tris, 150 mM NaCl, pH 8.0) was used for the evaluation of the protease activity, and a PROTEOSAVE® SS96F black plate (Sumitomo Bakelite Co., Ltd.) was used for the reaction and the measurement. The combinations of the protease and the substrate used for the evaluation of the specificity were as follows.

[2] = target: T2, human KLK5 (human, UniProt Q9Y337 67-293); assay: SPR, BIAcore T200; biotinylated KLK5 captured on chip, peptide as analyte; single cycle kinetics, 1:1 model
T2 construct: also called hKLK5; active KLK5; not shown: C-terminal tag with His tag, encoded by primers 3/4
T2 sequence: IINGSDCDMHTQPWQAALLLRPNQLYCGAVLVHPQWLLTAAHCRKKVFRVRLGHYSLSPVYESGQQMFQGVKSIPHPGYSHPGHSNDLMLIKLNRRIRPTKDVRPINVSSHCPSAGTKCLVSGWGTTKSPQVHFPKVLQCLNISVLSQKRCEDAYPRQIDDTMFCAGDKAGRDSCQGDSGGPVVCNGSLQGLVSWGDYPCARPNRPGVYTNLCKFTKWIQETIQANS
Description: In order to measure the binding affinity of the KLK5 inhibitory peptides, surface plasmon resonance analysis was conducted using BIAcore T 200 (GE healthcare). A complementary strand of DNA of a streptavidin conjugate was captured by hybridization on Sensor Chip CAP (GE healthcare) on which single-stranded DNA immobilized. Next, KLK5 biotinylated using EZ-Link NHS-PEG4-Biotin (Thermo Fisher Scientific) was captured at a flow rate of 10 μL/min to immobilize about 10 RU. Thereafter, the KLK5 inhibitory peptide, serially diluted 2-fold with HBS-EP (0.625 to 10 nM), was added thereto as an analyte at a flow rate of 30 μL/min. In the BIAcore T 200 Evaluation software (version 2.0), kon and koff were calculated by analysis using Single cycle kinetics in a simple one-to-one Langmuir binding model. The dissociation constant KD was calculated as a ratio of koff/kₒₙ. Further, multiple KLK5 inhibitory peptides were measured by regenerating Sensor Chip CAP using a Regeneration buffer attached to a Biotin CAPture Kit (GE healthcare) and repeatedly capturing biotinylated KLK5.

B1: KLK5/KLK14 inhibitory peptide K51069 (peptide)
chain: GPQFGLFSKYRTPNCSQVVETYCNRDYDPVCGSDMSTYANECTLCMKIREGGHNIKIIRNGPCGG
notes: SPINK2 mutant peptide made in E. coli
binding result [1]: binds | Kd [2]: ≤ 1 pM | koff [2]: ≤ 1e-06 s⁻¹ | kon [2]: 940000 M⁻¹ s⁻¹

B2: KLK5/KLK14 inhibitory peptide K50015 (peptide)
chain: B1 chain with S16Y, Q17D, V18T, V19T, E20T, T21H, N24S, D26E
notes: as for B1
binding result [1]: binds | Kd [2]: ≤ 1.1 pM | koff [2]: ≤ 1e-06 s⁻¹ | kon [2]: 940000 M⁻¹ s⁻¹
